Assay results published in publication PMC7327485 (The EMBO Journal, 2020).

Target: the molecule itself
Assay: absorbance at 350 nm

B1: farnesylated hGBP1 R584‐586A (hGBP1F ^R584‐586A) (natural protein)
chain: MASEIHMTGPMCLIENTNGRLMANPEALKILSAITQPMVVVAIVGLYRTGKSYLMNKLAGKKKGFSLGSTVQSHTKGIWMWCVPHPKKPGHILVLLDTEGLGDVEKGDNQNDSWIFALAVLLSSTFVYNSIGTINQQAMDQLYYVTELTHRIRSKSSPDENENEVEDSADFVSFFPDFVWTLRDFSLDLEADGQPLTPDEYLTYSLKLKKGTSQKDETFNLPRLCIRKFFPKKKCFVFDRPVHRRKLAQLEKLQDEELDPEFVQQVADFCSYIFSNSKTKTLSGGIQVNGPRLESLVLTYVNAISSGDLPCMENAVLALAQIENSAAVQKAIAHYEQQMGQKVQLPTETLQELLDLHRDSEREAIEVFIRSSFKDVDHLFQKELAAQLEKKRDDFCKQNQEASSDRCSALLQVIFSPLEEEVKAGIYSKPGGYRLFVQKLQDLKKKYYEEPRKGIQAEEILQTYLKSKESMTDAILQTDQTLTEKEKEIEVERVKAESAQASAKMLQEMQRKNEQMMEQKERSYQEHLKQLTEKMENDRVQLLKEQERTLALKLQEQEQLLKEGFQKESRIMKNEIQDLQTKMAAAKACTIS
modifications: C-terminal farnesyl moiety (added in vitro with farnesyltransferase and farnesyl pyrophosphate)
  binding result: binds
